Key:
[1] = molecular target: T1, recombinant human interleukin 9 receptor alpha (hIL9R) fused, at the c-terminal, to a human IgG1 Fc (hIL9R-Fc) (human, UniProt Q01113 41-270); test: selected from the clones positive in ELISA of periplasmic extracts on coated hIL9R-Fc
T1 construct: Bought protein; also called Acro Biosystems, Cat. No. ILR-H5251; not shown: human IgG1 Fc fused at the C-terminal
T1 sequence: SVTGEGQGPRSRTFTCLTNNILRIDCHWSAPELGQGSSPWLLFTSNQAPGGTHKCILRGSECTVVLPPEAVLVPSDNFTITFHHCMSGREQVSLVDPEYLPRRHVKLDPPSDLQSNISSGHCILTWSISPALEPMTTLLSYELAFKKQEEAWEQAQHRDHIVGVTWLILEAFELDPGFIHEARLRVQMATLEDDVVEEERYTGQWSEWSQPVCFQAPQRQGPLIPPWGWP
Source text: (§1) The antigen used for panning and ELISA screening was the same as the one used for immunization (Acro Biosystems, Cat. No. ILR-H5251), using uncoated blocked wells as negative control (blank) and hIgG1-Fc (Sino Biological, Cat. No. 10702-HNAH) coated wells as reference for Fc specific clones. Out of these 570 colonies tested by ELISA, 90 colonies scored positive for hIL9R-Fc only. Based on sequence data of the positive colonies, 29 different Nanobodies were distinguished, belonging to 14 different CDR3 groups (B-cell lineages)

[2] = molecular target: T2, hIgG1-Fc (human, UniProt P01857-1 99-330 = IgG part, limits assumed); test: ELISA, crude periplasmic extracts on hIgG1-Fc coated wells as reference for Fc specific clones
T2 construct: domain: Fc; also called Sino Biological, Cat. No. 10702-HNAH
Source text: as §1

B1: 2SAT363 (VHH)
VHH: QVQLQESGGGLVQAGGSLRLSCTVSGSFFNINAMGWYRQAPGKQRELVATITAGGSTKYEDTVKGRFTISGDSAKNTVSLQMNSLKPEDTAVYYCAAWGTRIRDDYWGQGTQVTVSS
notes: Screened as soluble Nanobody in crude periplasmic extracts, expressed from pMECS-GG; also called T2; VHH anti-IL-9Rα 2SAT363
B1: binds [1]; no binding [2].

B2: 2SAT57 (VHH)
VHH: QVQLQESGGGLVQAGGSLRLSCAASGSIFSINAMGWFRQAPGKQRELVAVISSGGSTNHADSVKGRFTISRDNAKNTVYLQMNSVKPEDTAVYYCLVATRGGTYEYWGQGTQVTVSS
notes: Screened as soluble Nanobody in crude periplasmic extracts, expressed from pMECS-GG; also called T3; VHH anti-IL-9Rα 2SAT57
B2: binds [1]; no binding [2].

— US20260216243A1 (TWAIN THERAPEUTICS PTE, published 2026)
